Target: full-length, relipidated human tissue factor (UniProt P13726)
Sequence (P13726 33-295): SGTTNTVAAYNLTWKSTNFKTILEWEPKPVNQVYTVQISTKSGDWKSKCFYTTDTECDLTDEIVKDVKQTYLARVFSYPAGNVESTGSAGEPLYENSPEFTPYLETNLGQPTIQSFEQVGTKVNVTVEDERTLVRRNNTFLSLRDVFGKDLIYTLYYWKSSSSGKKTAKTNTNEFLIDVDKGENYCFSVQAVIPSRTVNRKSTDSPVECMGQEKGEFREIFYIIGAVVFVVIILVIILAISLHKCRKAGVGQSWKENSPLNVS

rFVIIa(K62E)-FFR
prolongation of the clotting time of human and rabbit plasma (FIG. 6): rFVIIa(K62E)-FFR is a superior inhibitor of coagulation versus both rFVIIa(wt)-FFR and pdFVIIa-FFR at molar ratios of inhibitor:plasma FVII as low as 0.25:1 in both human and rabbit plasma

From US20070207960
